Measured values published in the supplement of paper PMC10567573.

B1: ALDH8A1 (parent)
chain: WSSRSPQERSRVLNQVADLLEQSL

Variants of: B1
Assay: protein stability index of a GFP-peptide fusion (GPS, HEK-293T) (PSI 1-6); higher = more stable
Settings: c terminus: a fixed tail appended
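Note: lentivirally expressed fusions sorted by FACS into six bins by GFP to DsRed ratio, PSI derived from sequencing read proportions per bin multiplied by bin number.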

Row | Variant | protein stability index
1 | WSSRSPTERSRVLNQVADLLEQSL [Q7T] | 2.15
2 | WSSRSPWERSRVLNQVADLLEQSL [Q7W] | 2.37
3 | WSSRSPVERSRVLNQVADLLEQSL [Q7V] | 2.53
4 | WSSRSPYERSRVLNQVADLLEQSL [Q7Y] | 1.79
5 | WSSRSPSERSRVLNQVADLLEQSL [Q7S] | 2.21
6 | WSSRSPRERSRVLNQVADLLEQSL [Q7R] | 2.62
7 | WSSRSPQFRSRVLNQVADLLEQSL [E8F] | 2.01
8 | WSSRSPQPRSRVLNQVADLLEQSL [E8P] | 2.51
9 | WSSRSPQRRSRVLNQVADLLEQSL [E8R] | 2.88
10 | WSSRSPQVRSRVLNQVADLLEQSL [E8V] | 2.23
11 | WSSRSPQTRSRVLNQVADLLEQSL [E8T] | 2.46
12 | WSSRSPQDRSRVLNQVADLLEQSL [E8D] | 2.87
13 | WSSRSPQGRSRVLNQVADLLEQSL [E8G] | 2.17
14 | WSSRSPQARSRVLNQVADLLEQSL [E8A] | 2.31
15 | WSSRSPQSRSRVLNQVADLLEQSL [E8S] | 2.16
16 | WSSRSPQKRSRVLNQVADLLEQSL [E8K] | 2.04
17 | WSSRSPQNRSRVLNQVADLLEQSL [E8N] | 2.23
18 | WSSRSPQLRSRVLNQVADLLEQSL [E8L] | 2.1
19 | WSSRSPQHRSRVLNQVADLLEQSL [E8H] | 2.71
20 | WSSRSPQWRSRVLNQVADLLEQSL [E8W] | 2.36
21 | WSSRSPQQRSRVLNQVADLLEQSL [E8Q] | 2.57
22 | WSSRSPQMRSRVLNQVADLLEQSL [E8M] | 2.19
23 | WSSRSPQYRSRVLNQVADLLEQSL [E8Y] | 2.71
24 | WSSRSPQIRSRVLNQVADLLEQSL [E8I] | 2.68

Row | Variant | protein stability index
25 | WSSRSPQCRSRVLNQVADLLEQSL [E8C] | 1.6
26 | WSSRSPQERSRVLNQWADLLEQSL [V16W] | 2.26
27 | WSSRSPQERSRVLNQMADLLEQSL [V16M] | 2.7
28 | WSSRSPQERSRVLNQTADLLEQSL [V16T] | 4.18
29 | WSSRSPQERSRVLNQPADLLEQSL [V16P] | 3.62
30 | WSSRSPQERSRVLNQSADLLEQSL [V16S] | 3.99
31 | WSSRSPQERSRVLNQFADLLEQSL [V16F] | 1.92
32 | WSSRSPQERSRVLNQQADLLEQSL [V16Q] | 4.62
33 | WSSRSPQERSRVLNQIADLLEQSL [V16I] | 2
34 | WSSRSPQERSRVLNQCADLLEQSL [V16C] | 2.98
35 | WSSRSPQERSRVLNQEADLLEQSL [V16E] | 4.6
36 | WSSRSPQERSRVLNQAADLLEQSL [V16A] | 3.86
37 | WSSRSPQERSRVLNQYADLLEQSL [V16Y] | 2.29
38 | WSSRSPQERSRVLNQLADLLEQSL [V16L] | 2.24
39 | WSSRSPQERSRVLNQDADLLEQSL [V16D] | 4.34
40 | WSSRSPQERSRVLNQGADLLEQSL [V16G] | 4.12
41 | WSSRSPQERSRVLNQKADLLEQSL [V16K] | 3.71
42 | WSSRSPQERSRVLNQRADLLEQSL [V16R] | 3.9
43 | WSSRSPQERSRVLNQNADLLEQSL [V16N] | 4.2
44 | WSSRSPQERSRVLNQHADLLEQSL [V16H] | 3.55
45 | WSSRSPQERSRVLNQVMDLLEQSL [A17M] | 1.85
46 | WSSRSPQERSRVLNQVFDLLEQSL [A17F] | 2.58
47 | WSSRSPQERSRVLNQVGDLLEQSL [A17G] | 3.47
48 | WSSRSPQERSRVLNQVPDLLEQSL [A17P] | 3.53

Row | Variant | protein stability index
49 | WSSRSPQERSRVLNQVLDLLEQSL [A17L] | 1.48
50 | WSSRSPQERSRVLNQVEDLLEQSL [A17E] | 3.88
51 | WSSRSPQERSRVLNQVKDLLEQSL [A17K] | 3.17
52 | WSSRSPQERSRVLNQVNDLLEQSL [A17N] | 3.3
53 | WSSRSPQERSRVLNQVCDLLEQSL [A17C] | 2.34
54 | WSSRSPQERSRVLNQVDDLLEQSL [A17D] | 3.87
55 | WSSRSPQERSRVLNQVIDLLEQSL [A17I] | 2.42
56 | WSSRSPQERSRVLNQVHDLLEQSL [A17H] | 2.54
57 | WSSRSPQERSRVLNPVADLLEQSL [Q15P] | 3.13
58 | WSSRSPQERSRVLNMVADLLEQSL [Q15M] | 1.67
59 | WSSRSPQERSRVLNWVADLLEQSL [Q15W] | 1.79
60 | WSSRSPQERSRVLNGVADLLEQSL [Q15G] | 2.66
61 | WSSRSPQERSRVLNKVADLLEQSL [Q15K] | 2.13
62 | WSSRSPQERSRVLNFVADLLEQSL [Q15F] | 1.54
63 | WSSRSPQERSRVLNEVADLLEQSL [Q15E] | 3.03
64 | WSSRSPQERSRVLNVVADLLEQSL [Q15V] | 1.75
65 | WSSRSPQERSRVLNYVADLLEQSL [Q15Y] | 1.81
66 | WSSRSPQERSRVLNDVADLLEQSL [Q15D] | 3.31
67 | WSSRSPQERSRVLNLVADLLEQSL [Q15L] | 2.36
68 | WSSRSPQERSRVLNAVADLLEQSL [Q15A] | 1.51
69 | WSSRSPQERSRVLNNVADLLEQSL [Q15N] | 3.22
70 | WSSRSPQERSRVLNCVADLLEQSL [Q15C] | 1.81
71 | WSSRSPQERSRVLNSVADLLEQSL [Q15S] | 2.74
72 | WSSRSPQERSRVLNRVADLLEQSL [Q15R] | 2.85

Row | Variant | protein stability index
73 | WSSRSPQERSRVLNTVADLLEQSL [Q15T] | 2.59
74 | WSSRSPQERSRVLNIVADLLEQSL [Q15I] | 2.07
75 | WSSRSPQERSRVLNHVADLLEQSL [Q15H] | 2.13
76 | WSSRSPQERSYVLNQVADLLEQSL [R11Y] | 2.22
77 | WSSRSPQERSFVLNQVADLLEQSL [R11F] | 2.43
78 | WSSRSPQERSKVLNQVADLLEQSL [R11K] | 1.99
79 | WSSRSPQERSIVLNQVADLLEQSL [R11I] | 2.21
80 | WSSRSPQERSMVLNQVADLLEQSL [R11M] | 1.55
81 | WSSRSPQERSNVLNQVADLLEQSL [R11N] | 2.48
82 | WSSRSPQERSTVLNQVADLLEQSL [R11T] | 2.48
83 | WSSRSPQERSSVLNQVADLLEQSL [R11S] | 2.74
84 | WSSRSPQERSAVLNQVADLLEQSL [R11A] | 3.4
85 | WSSRSPQERSEVLNQVADLLEQSL [R11E] | 3.27
86 | WSSRSPQERSVVLNQVADLLEQSL [R11V] | 2.68
87 | WSSRSPQERSQVLNQVADLLEQSL [R11Q] | 2.38
88 | WSSRSPQERSPVLNQVADLLEQSL [R11P] | 2.58
89 | WSSRSPQERSLVLNQVADLLEQSL [R11L] | 2.15
90 | WSSRSPQERSCVLNQVADLLEQSL [R11C] | 2.18
91 | WSSRSPQERSGVLNQVADLLEQSL [R11G] | 2.91
92 | WSSRSPQERSWVLNQVADLLEQSL [R11W] | 1.86
93 | WSSRSPQERSDVLNQVADLLEQSL [R11D] | 3.37
94 | WSSRSPQERSHVLNQVADLLEQSL [R11H] | 1.89
